In patent US20160355553A1 (Janssen / Centocor, published 2016):

Columns and labels:
[1] = biological target: mini3 cluster11+5 (A/Brisbane/59/2007) (influenza A virus H1N1, UniProt A8C8J4 18-565); test: FACS on HEK293F
[2] = biological target: mini4 cluster11 (A/Brisbane/59/2007) (influenza A virus H1N1, UniProt A8C8J4 18-565); test: FACS on HEK293F
[3] = biological target: mini2 cluster11 (A/Brisbane/59/2007) (influenza A virus H1N1, UniProt A8C8J4 18-565); test: FACS on HEK293F
[4] = biological target: mini1 cluster11 (A/Brisbane/59/2007) (influenza A virus H1N1, UniProt A8C8J4 18-565); test: FACS on HEK293F
[5] = biological target: mini4 cluster11+5 (A/Brisbane/59/2007) (influenza A virus H1N1, UniProt A8C8J4 18-565); test: FACS on HEK293F
[6] = biological target: mini1 cluster11+5 (A/Brisbane/59/2007) (influenza A virus H1N1, UniProt A8C8J4 18-565); test: FACS on HEK293F
[7] = biological target: mini2 cluster11+5 (A/Brisbane/59/2007) (influenza A virus H1N1, UniProt A8C8J4 18-565); test: FACS on HEK293F
[8] = biological target: mini3 cluster11 (A/Brisbane/59/2007) (influenza A virus H1N1, UniProt A8C8J4 18-565); test: FACS on HEK293F
[9] = biological target: HK68 H3m2-cl9+10+11+12 (influenza A virus H3N2, UniProt Q91MA7 17-566); test: FACS on HEK293F [D00014 FIG. 10B]
[10] = biological target: HK68 H3m2-cl9+10+11+12-GCN4 (influenza A virus H3N2, UniProt Q91MA7 17-566); test: FACS on HEK293F [D00014 FIG. 10B]
[11] = biological target: HK68 H3m2-cl9 (influenza A virus H3N2, UniProt Q91MA7 17-566); test: FACS on HEK293F [D00014 FIG. 10B]
[12] = biological target: HK68 H3m2-cl9+10+11+13 (influenza A virus H3N2, UniProt Q91MA7 17-566); test: FACS on HEK293F [D00014 FIG. 10B]
[13] = biological target: HK68 H3m2-cl9+10 (influenza A virus H3N2, UniProt Q91MA7 17-566); test: FACS on HEK293F [D00014 FIG. 10B]
[14] = biological target: HK68 H3m2-cl9+10+11+13-GCN4 (influenza A virus H3N2, UniProt Q91MA7 17-566); test: FACS on HEK293F [D00014 FIG. 10B]
[15] = biological target: H3 Full-length A/Hong Kong/1/1968 (influenza A virus H3N2, UniProt Q91MA7 17-566); test: FACS on HEK293F [D00014 FIG. 10B]
[16] = biological target: HK68 H3m2-cl9+10+11+12-tri (influenza A virus H3N2, UniProt Q91MA7 17-566); test: FACS on HEK293F [D00014 FIG. 10B]
[17] = biological target: H1 Full-length (A/Brisbane/59/2007) (influenza A virus H1N1, UniProt B4URD6 18-565); test: FACS on HEK293F
[18] = biological target: miniHA cluster1+2+3+4 (A/Brisbane/59/2007) (influenza A virus H1N1, UniProt A8C8J4 18-565); test: FACS on HEK293F
[19] = biological target: miniHA cluster1 (A/Brisbane/59/2007) (influenza A virus H1N1, UniProt A8C8J4 18-565); test: FACS on HEK293F
[20] = biological target: miniHA cluster1+2+3 (A/Brisbane/59/2007) (influenza A virus H1N1, UniProt A8C8J4 18-565); test: FACS on HEK293F
[21] = biological target: H1-PR8-dH1 (influenza A virus H1N1, UniProt P03452 18-565); test: FACS on HEK293F
[22] = biological target: miniHA cluster1+2 (A/Brisbane/59/2007) (influenza A virus H1N1, UniProt A8C8J4 18-565); test: FACS on HEK293F
[23] = biological target: miniHA cluster1+3 (A/Brisbane/59/2007) (influenza A virus H1N1, UniProt A8C8J4 18-565); test: FACS on HEK293F
[24] = biological target: H1 FL HA A/Puerto Rico/8/1934 (influenza A virus H1N1, UniProt P03452 18-565); test: FACS on HEK293F
[25] = biological target: T1, FL4-06 B-m2-CL1+5-GCN4a (influenza B virus, UniProt P03461 6-574); test: FACS, transfected cells
T1 chain: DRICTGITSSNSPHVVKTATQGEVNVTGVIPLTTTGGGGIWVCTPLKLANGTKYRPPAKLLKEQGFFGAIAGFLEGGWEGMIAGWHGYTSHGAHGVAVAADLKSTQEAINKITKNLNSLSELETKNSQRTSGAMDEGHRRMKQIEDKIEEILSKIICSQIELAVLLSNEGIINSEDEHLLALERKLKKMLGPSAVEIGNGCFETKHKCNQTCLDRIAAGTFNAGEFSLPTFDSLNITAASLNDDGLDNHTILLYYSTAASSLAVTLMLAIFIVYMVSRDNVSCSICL

B1: CR8057 (antibody, V domains shown)
VH: EVQLVESGGGLVQPGGSLRLSCAASGFTDSVIFMSWVRQAPGKGLECVSIIYIDDSTYYADSVKGRFTISRHNSMGTVFLEMNSLRPDDTAVYYCATESGDFGDQTGPYHYYAMDV
VL: QSALTQPASVSGSPGQSITISCTGSSGDIGGYNAVSWYQHHPGKAPKLMIYEVTSRPSGVSDRFSASRSGDTASLTVSGLQAEDEAHYYCCSFADSNILI
**Q.** What does the source list for B1?
**A.** binding result [1]: no binding (tested: 5 ug/ml); binding result [2]: no binding (tested: 5 ug/ml); binding result [3]: no binding (tested: 5 ug/ml); binding result [4]: no binding (tested: 5 ug/ml); binding result [5]: no binding (tested: 5 ug/ml); binding result [6]: no binding (tested: 5 ug/ml); binding result [7]: no binding (tested: 5 ug/ml); binding result [8]: no binding (tested: 5 ug/ml); binding result [9]: no binding (tested: 5 ug/ml); binding result [10]: no binding (tested: 5 ug/ml); binding result [11]: no binding (tested: 5 ug/ml); binding result [12]: no binding (tested: 5 ug/ml); binding result [13]: no binding (tested: 5 ug/ml); binding result [14]: no binding (tested: 5 ug/ml); binding result [15]: no binding (tested: 5 ug/ml); binding result [16]: no binding (tested: 5 ug/ml); binding result [17]: no binding (tested: 5 ug/ml); binding result [18]: no binding (tested: 5 ug/ml); binding result [19]: no binding (tested: 5 ug/ml); binding result [20]: no binding (tested: 5 ug/ml); binding result [21]: no binding (tested: 5 ug/ml); binding result [22]: no binding (tested: 5 ug/ml); binding result [23]: no binding (tested: 5 ug/ml); binding result [24]: no binding (tested: 5 ug/ml)

B2: CR9114 (antibody, V domains shown)
VH: QVQLVQSGAEVKKPGSSVKVSCKSSGGTSNNYAISWVRQAPGQGLDWMGGISPIFGSTAYAQKFQGRVTISADIFSNTAYMELNSLTSEDTAVYFCARHGNYYYYSGMDVWGQGTTVTVSS
VL: SYVLTQPPAVSGTPGQRVTISCSGSDSNIGRRSVNWYQQFPGTAPKLLIYSNDQRPSVVPDRFSGSKSGTSASLAISGLQSEDEAEYYCAAWDDSLKGAVFGGGTQLTVL
**Q.** Does B2 bind [25]?
**A.** no binding
